Assay results: US7189832 (University of California, dated 2007)

B1: recombinant ΔN-IKK-γ (134-419) (other, not shown: small tags and cut ends)
chain: QMAEDKASVKAQVTSLLGELQESQSRLEAATKECQALEGRARAASEQARQLESEREALQQQHSVQVDQLRMQGQSVEAALRMERQAASEEKRKLAQLQVAYHQLFQEYDNHIKSSVVGSERKRGMQLEDLKQQLQQAEEALVAKQEVIDKLKEEAEQHKIVMETVPVLKAQADIYKADFQAERQAREKLAEKKELLQEQLEQLQREYSKLKASCQESARIEDMRKRHVEVSQAPLPPAPAYLSSPLALPSQRRSPPEEPPDFCCPKCQYQAPDMDTLQIHVMECIE
notes: also called N-terminal truncation
B2: recombinant ΔC-IKK-γ (1-300) (other, not shown: small tags and cut ends)
chain: MNRHLWKSQLCEMVQPSGGPAADQDVLGEESPLGKPAMLHLPSEQGAPETLQRCLEENQELRDAIRQSNQILRERCEELLHFQASQREEKEFLMCKFQEARKLVERLGLEKLDLKRQKEQALREVEHLKRCQQQMAEDKASVKAQVTSLLGELQESQSRLEAATKECQALEGRARAASEQARQLESEREALQQQHSVQVDQLRMQGQSVEAALRMERQAASEEKRKLAQLQVAYHQLFQEYDNHIKSSVVGSERKRGMQLEDLKQQLQQAEEALVAKQEVIDKLKEEAEQHKIVMETVPV
notes: also called C-terminal truncation

Biological target: the molecule itself
Assay: EGS crosslinking of recombinant protein, SDS-PAGE, immunoblot

Protein | binding result
B1 | binds
B2 | binds
